# Source: publication PMC11697037, “Structural insights into the regulation of monomeric and dimeric apelin receptor” (Nature Communications, 2025)
# B1: human WT APJR (apelin receptor), cryo-EM construct with a deletion of 50 residues from the C-terminus (receptor, UniProt P35414 1-330, looked up)
# chain: MEEGGDFDNYYGADNQSECEYTDWKSSGALIPAIYMLVFLLGTTGNGLVLWTVFRSSREKRRSADIFIASLAVADLTFVVTLPLWATYTYRDYDWPFGTFFCKLSSYLIFVNMYASVFCLTGLSFDRYLAIVRPVANARLRLRVSGAVATAVLWVLAALLAMPVMVLRTTGDLENTTKVQCYMDYSMVATVSSEWAWEVGLGVSSTTVGFVVPFTIMLTCYFFIAQTIAGHFRKERIEGLRKRRRLLSIIVVLVVTFALCWMPYHLVKTLYMLGSLLHWPCDFDLFLMNIFPYCTCISYVNSCLNPFLYAFFDPRFRQACTSMLCCGQSR
# notes: The N-terminal fusion is HA signal peptide, Flag tag, 10x His tag and BRIL, in pFastBac1; No cleavage of the fusion is mentioned; The protein is seen both as a monomer and as a homodimer; also called ProtA; ProtB; source: Trichoplusia ni (Hi5) insect cells, baculovirus; alone or co-expressed with Gi and/or JN241-9; purified (LMNG/CHS, Talon resin, SEC); not shown: His10, N-terminal, kept
# B2: JN241-Fc, antagonistic single-domain antibody (sdAb) JN241 with Fc tag (VHH)
# VHH: QVQLVESGGGSVQSGGSLTLSCAASGSTYSSHCMGWFRQAPGKEREGVALMTRSRGTSYADSVKGRFTISQDNTKNILYLQMNSLKPEDTAMYYCAAVPRAGIESGAYCKWNMKDSGSWGQGTQVTVSS
# notes: the model of the JN241-APJR complex deposited here (PDB 8XQJ) holds this chain; also called antagonistic antibody; sdAb antagonist; source: provided by Structure Therapeutics
# B3: JN241 with the Fc tag removed (VHH)
# VHH: QVQLVESGGGSVQSGGSLTLSCAASGSTYSSHCMGWFRQAPGKEREGVALMTRSRGTSYADSVKGRFTISQDNTKNILYLQMNSLKPEDTAMYYCAAVPRAGIESGAYCKWNMKDSGSWGQGTQVTVSS
# notes: as the VHH of m4; PDB 8XQJ holds the JN241 chain; also called sdAb; source: Fc tag removed
# Experiments:
# [1] = biological target: the molecule itself; test: cryo-EM structure; JN241-9-APJR complex, APJR and JN241-9 co-expressed in Hi5 cells (1:1 virus ratio), co-purified without added ligand; no Gi
# [2] = biological target: T1, human WT APJR (apelin receptor), cryo-EM construct with a deletion of 50 residues from the C-terminus (human, UniProt P35414); test: cryo-EM structure; purified APJR (LMNG/CHS) incubated 1 h at 4 °C with 125 µg JN241(-Fc), SEC in 20 mM HEPES pH 7.5, 100 mM NaCl; no Gi; details: both partners purified
# T1 construct: The N-terminal fusion is HA signal peptide, Flag tag, 10x His tag and BRIL, in pFastBac1; No cleavage of the fusion is mentioned; The protein is seen both as a monomer and as a homodimer; also called ProtA; ProtB; source: Trichoplusia ni (Hi5) insect cells, baculovirus; alone or co-expressed with Gi and/or JN241-9; purified (LMNG/CHS, Talon resin, SEC); not shown: His10, N-terminal, kept
# [3] = biological target: T1, human WT APJR (apelin receptor), …; test: cryo-EM 2D classification; JN241-APJR complex with the Fc tag removed from the sdAb; data quality insufficient for a high-resolution structure; details: both partners purified
binder,measurement,setting,value
B1,binding result,[1],binds
B2,binding result,[2],binds
B3,binding result,[3],binds
